According to the domain aggregation screens of Martell et al. (2025):

Assay: soluble fraction after stress (log2 fold change); higher = more stays soluble; pooled small domains, quantitative proteomics
Conditions: stress: 50 degC
Summary of the method: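 Each library was heated to 50°C as a stress step. The libraries, made up of small protein domains, were pooled and analysed at high throughput by quantitative proteomics. The reported value is the base-two logarithm of the fold change in each protein's soluble amount after stress, taken as a measure of aggregation propensity. The higher the value, the more protein stays in solution.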

Sequence	soluble fraction (log2)
HMAMDYYAIGQRIRKFRKAHDWSQEELAEKVEISTTHMSHIETGSTKLSLPVLVSLANVLDVRTDDLLF	-3.88
HMGMTTSILDDVIGMGPKRKKALLKAFGSFGALRNATLEEIKQTHTVPEQVAEDVYAVLVQYNSKSE	-0.233
HMGNKKLVLKLSKKLIKIPSFLNIYSVKLTKNGRELEINLDKSQNEAIDIINLIKKNNISFLEFDIKKR	-0.267
HMAGTRVWSENGQLYVTAAVSGRANVYNVLGKLNRSLTFSAGETKSVSVPAGIYVVSLNNGKAYKVAV	-1.67
HMETIHEMVNRLSSEGFIKNEDGIWYLRDRRGDGTKWLKNPFFESTGEKDAFALIDHLKVNDELLSKLRK	-0.3
HMARLAGVDLPREKRIEIGLTYIYGIGLARSQEILKKAGINPDIRVKDLTDEQEQAIRNAMDGYIVEGDL	-0.148
HMDIDLGAVEEQAVKGSGPGGQKMNKTSSGVLLRYRLGEELVLVKWTRERQHSLNRFLALRELVDEIEAR	≥ 0.62
HMKMLSIQRREAIRALLLEKESITIAEVMEKFQISVETARRDFDALADEGFLNKVYGGATLKK	-1.37
HMDDPTVILFDPKNGQRKIVKWKAGLTLYSARRSAGISSAAEATIQRAGKSLSGRTATALEPGDVIRW	-0.953
HMDEAETELIRRMVSEHPPTTKRERDIVQMRLRGYLFVEIGEAYGISFQRAAQIYNAAVEKIKEYWD	0.00188
HMAAVEDLPVKSVNGKKYHYYTVQPKESLYSLSHKLGISRQEIIKYNPGVEDGLKAYEDLLFPYTPK	0.105
HMSDDVELLGRLSDREVSVLQYLSQGYSNKQISEQMFISNKTVSTYKARLLLKLNAGSLVDLIEFAKRNTL	-1.4
HMAYVDWYENKQPTHEEAFKKLLGRIHPGAIVLLHSTSKTNGEILDELLTKWEEMGYRFGTLDELTGN	-1.18
HMTVKNFNDLPGFKNENLAELKAMGITTISELAEALNDGGKIKEIIKNLSGVGPKTAEKWKDAIG	≥ 0.62
HMTKPTLMEVEIKGAIQNPGVYTLKRNSSISKLIKMSGPLLENADTSSISFTHILQDKDVVVIPEIK	-0.262
HMKRIFEKKVVTESLNGLRLDKAAATLFADFSRNELGQWIKDEALLVNGKAKKVKEKVSEGDVLALDVELI	0.0881
HMVPPVVRTIYGAGGKMTATFLFPGGYEVDAASGAELPGKYRVESISLDQVVLTDKDGNRVPVGFSSVAPT	0.0614
HMDSVFGVVTSSDGVKLRKEASTISKVLTVLPYGTEVDVDRIGSEWIRIVTDGGQKGYVSADYLAVREGER	0.206
HMLDEPPVSQTLTTYDREHMALYLRLLDSARDGADWREAVQILFGLDPTRDPLRSRHVHDTHLARARWM	-0.131
HMEDGRLPPPGTVLRREYKGRAVFVRVLPKGFEFEGEVYRSLSAIAAKVTGSHWNGFRFFGLHE	-1.54
HMNLEIGAIIKSLRAKHKYTQEQLSAFLGVTPQAVSRWEAGNGYPDIELLPAIARFFEVSTDELLGL	-0.428
HMEELIIQEELANKRLDIAISLLFPELTRAHAQKLIKEGSVLVDGKPRKASYPLTAGKRLSVTLPEPE	0.05
HMAPDAPDGFVHRWIRAEMLGQEDKSNVHRRMQEGYELVRADEYPDSDLPVAEGRYAGIIGVGGLLLARF	-0.14
HMDFLKSVDLSKYSKVESLILSHLSKGDFDIDDFIRSFSLGTDEVTRAIVSLEIEGIILRKGNRIFRKKS	-0.0402
HMNKETYIDALERKLWDRLDPDQLRDIISYYKDYFAMEAAKGISEEETIRKLGDPALLAKSILAAE	-0.335

Sequence	soluble fraction (log2)
HMDVPNLVGEEIKDVRRTLRHFQLEVIGEGSKIVSQVPKHGQRLPENTTIRVYLN	0.155
HMSQESIMPNLVGSTEDEAKAIAVEYGFQLNVISRVNNSQYPAGVIIDQNVDEGVRIKAGYPVGVTIS	-0.207
HMAVNQEFKNTINRIKYEYSLNQSQIADRLGVKKTYLSDMINGRVPYNETMNKKVNDVFPLPP	0.11
HMRSVEVAAEPGMVLEDRQTGFVGAVVAVEKSGGTHLVVLEDRHGLRRGFPLGPGFWLEGRPVVLAPPP	-0.227
HMVAELAEMAENKNITSAQLALAWILKQSENIIPIPGTKRIKYLNENIEAVNVDLSKEDVENIENLLRKYP	-0.0297
HMQKLKINKYKDPKGEIRYYIASTIRNGNKSSTHNLLSLGKHSDLLKEHSDVEAYLKERLNEAMESGI	-0.145
HMKIPYGELIKLLNAAAPKLQDAQGWMDMEAAGQFIGSRWSYLDYGFKDWPDSFKTVHGLEIQGQRMRLA	-0.452
HMTYNEYPEKEMQDLIDKSISQQEQAASQYGYSLGDYVTARYGFQSESDFREYVQGLAEDYMKEKI	-0.198
HMVQARDQNIEEGRQLVLRELDRLDLVNESLTDVAADMNMKSVEDMYAAIGAGDLRVGQVVHAVLKRAD	0.00761
HMPPELSDEVMEEAMSYLKNQYLNHGVKLEDYPALNKLFVDEAFRSEVIRKTQSNYKISYQSAMASLD	0.0219
HMHSFFGDNIKKLRTAKKMSQEQLADIFGITKAGISYWETGRSEPNFATVQKLADFFGVTTSDLLGEA	-0.194
HMKFTELEQLMLKREINTLADIARVLKTTPQAVSNWKARDQIPYHIVAKINASINKDSNDSSLSI	0.00789
HMESRRVTLLLPYDKAGIADTLRREAAVLSLEYGEDGVTVEAVVKPELWGLVREYVQNDNPK	0.166
HMTHANAALTPRHRLKVARLVVDEGWPVSEVAARFQVSWPTVKRWADRYRAGQSMQDRSSRP	-1.13
HMTEIILTARSGRHAVRHRLEGLGYTLTPEELERVHQRFLAVADAKKEVFDEDLHALMADERGT	0.0349
HMVAGHLQEKNGQFYAVLSYKDTKGKRRTKWVPTGLMVRGNKKRAEAMLNDIRRKFVPPEQED	0.0995
HMFSLDMDRLVRPGFMASGNVTFSDGVTGKWALDQMGRLALETAQKGYQPSPADVQAFQRELQQQLQRQG	-0.0885
HMIIDTELMTRVMKFGFSQADASDLVAQHSDDLLRTAISRVEARAESKGMTPLETPAGYFRWTLQDLVRNP	-1.24
HMDIMTVGERVKKLAEKQGISLRELAKKAELSYNTVYSITRRGSERVAPDTISRLANALGVNVNELT	0.0708
HMGTIEEYSKYLINQYFDSLKKPMDAMTTSEKIEIVKSLDKKGIFNLKGSVGELAKRFNTSEKTIYRYLSS	0.0367
HMGLAWTVEGRTVLLGRTADRIELYNVGGGLVALARESDRISAPGVGLYVVRVVSDGQSVSQKIWIT	-0.394
HMEPADALVAALVARGVSPSTARITVKQYPATRIQPQLEVFDYLVAQKDPKVSRNPPGFLLSAIRGEYA	-0.188
HMALLKRQDEILMYLYTQNKWITGNELAQLFHVSLRTIRNDISFINTEKSNSVLSNRNKGYHIAKDFVYNE	-0.924
HMLRVGASVTANGKYWYDSYGSKPFGTANNLSTTVTRIVPGNPYPIHIGSYGWLQESQIQIT	-1.03
HMNYKDQISRYFQQAFHIYPKYQTMKNEEGNFTSKIFKDDKMIIEGVGKSKKKAEQDVSRKALIHFNVL	-0.262

Sequence	soluble fraction (log2)
HMLGDAWSMLILRDAHSGFSRFDQFRKSLGIAPTMLTKRLSVLVDEGLLEKRQYSEHPPREEYVLTQAGQD	0.0822
HMVSEASELTDTINKIGSLAQALVGANKLSKTDLVGIIKKYHTSANYNSITDIGVAKNILAELEAKN	0.0739
HMNLDVPGIIKRAKQALNLKRDSELAEFLGVSRATVTNWAARNSIDFRLLLDKLGNTVDYNWLLLGKGNPK	-0.221
HMDELIKQVANYIINNRATINETAGAFGKSVSSIKKYINDADKLQRIDFELYQKVKEVQKIVELNGQI	0.144
HMNINLNVGKRLKSIRQNKELSLDEVSNLTNVSKPALAQIERGASSPTINTLWKISKGLKVPLSYFLQE	-0.0405
HMSKKIVLPAAITVKKFSETLDMPLGTVISELMKNGILATINERIDFETASIIAQDLGYEVSEEV	0.173
HMKTGNIITVSLVWKGKYYMIRMFFPSASRPTRSDVQNEIEKVYPGSKLSTFSVSDYEPGQPLLQV	-1.16
HMIISMKKTATKEQIAHVRELIEGMGYKAHMSVGAERVIFGAIGDERGKERLVSLEAQPGVEKVIPIL	0.255
HMVQISNTDDLYPIVQRIVDANPQSVEDYKNGKAKALGFLVGQMMKETKGKANPSMVNDLIIKAIEE	0.123
HMKGEKVTKIELSNFIKFLINDLENKGFFNPPEKKDSMIDNIYSIYNKMTLTKKELNMLWGMHKKLK	-1.44
HMKKYFPPKSRFNPNKYLLKDWMALGLSEKQSQSILNFIQRGIYSNSALEKIYVMPEEVFTLIKDSTYYEE	-1.34
HMDYIITHYPDNKRFETQVDGVVAFVQYRLSGDKLDIIHTIVPPAIGGRGIAAALVKYAYDYAIENGMK	-0.76
HMKNETFAITSEDAGKRLDVWLTNILGDYSRSYVERLVEQGNVTVGGKTVKAGYKLKAGDSVQVSIPGPK	0.138
HMDMRLADLIGRDGITITFMRPSGKVEIDGEIYDAVSDVGLIDKNEEVEVIKFENAQLVVTKKNKN	-0.0621
HMLAQISDEGAIGAVVARVLDAHPNEVARYHAGEEKVAKFLMGAAMRELRGKGDPAVVQRLLSEGLDARRV	0.119
HMEKAISSLTLEEAKKRLEMVRSEKDASLQIYKETGSETARVTAENYGKEENSLLLHISEMSNIV	-0.469
HMFNPEQDPKQLTGRERAVADLIGLGANNAEIAIRLSMSERTVKAHLTSIFQQLNVRDRVQLALVMNQL	-0.585
HMEGPALKVWKARYLRAAILEQLLSDRWDDRGGQPIRVVVNEPTNSLLIRIPRHLWPEAEKLLQELDQR	-1.02
HMNVEGEVVVPNVIGRTMKDVAVILSDLGLRMEAEGTGVAKSSQPQHGTSVKRGTVVQVRFEPLSVN	0.141
HMTALAVGDRVKMDKSATIYGTMRKFAAWVYATKLYVRGIDGNRVVVSTLKSGAITGAVDKKHLTK	-1.12
HMSGITDIITDGKATSRPVVVTDGGHIRVLSPYTSFAIYTLGGMSLPTESRLEPGIYIVVVDSNAVKVAV	-0.619
HMTDGLTVPMQGVVIRYKAKKGDKVAVGDAVAVLEAMKMEQNIFANKSGTIKEIYIKEGTTVTPGDVLMSI	-0.0052
HMEKLSMLKIKELFRLAIEMNLSHRQIAQSLNVSHTVVNRYLKRFKKSNLSYETLLKLGDKEIISALYEH	-2.29
HMRAVPTKLAPFVEVLKAMLEADGHRPKAQRRTAKALHLELISRGYAGGYTRLTDYIRDWRQQQG	-2.34
HMREFQVMKQELQEMVHQRLDMSTELSDEAIGDVIDEVIMEKSRNMYISSVTKLTLRQELFNAIR	-0.629
